# Results: patent CN110790839A (JIANGSU HENGRUI MEDICINE CO; SHANGHAI HENGRUI …, dated 2020)
# Molecular target: T1, 人PD-1抗原(Cat.#10377H08H，Sino Biological) (human, UniProt Q15116 25-167)
# T1 construct: Bought reagent, used as the analyte in Biacore; also called human PD-1; PD-1-His
# Assay: SPR, Biacore T200; IgG captured on Protein A chip, human PD-1 as analyte, 1:1 Langmuir fit
# T1 sequence (Q15116 25-167 limits assumed): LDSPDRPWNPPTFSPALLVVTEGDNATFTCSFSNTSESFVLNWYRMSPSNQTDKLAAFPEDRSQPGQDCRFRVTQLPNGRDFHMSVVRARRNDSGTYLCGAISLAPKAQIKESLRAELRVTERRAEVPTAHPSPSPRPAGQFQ
row,Kd [nM],Binder
1,2.8,"Ab05 (antibody, human IgG4 S228P, kappa, F234A L235A, V domains shown, also called 抗PD-1抗体Ab05) VH: EVQLVESGGGLVQPGGSLRLSCAASGFTFSSYMMSWVRQAPGKGLEWVATISGGGANTYFADSVKGRFTISRDNAKNSLYLQMNSLRAEDTAVYYCARTQIGFTNWGQGTTVTVSS VL: DIQMTQSPSSLSASVGDRVTITCLASQTIGTWLTWYQQKPGKAPKLLIYTATSLADGVPSRFSGSGSGTDFTLTISSLQPEDFATYYCQQAYSIPWTFGGGTKVEIKR"
2,2.56,"Ab01 (antibody, human IgG4 S228P, kappa, F234A L235A, V domains shown, also called 抗PD-1抗体Ab01) VH: EVQLVESGGGLVQPGGSLRLSCAASGFTFSSYMMSWVRQAPGKGLEWVATISGGGANTYFADSVKGRFTISRDNAKNSLYLQMNSLRAEDTAVYYCARTQIGFTNWGQGTTVTVSS VL: DIQMTQSPSSLSASVGDIVTITCLASQTIGTWLTWYQQKPGKAPKLLIYTATSLADGVPSRFSGSGSGTDFTLTISSLQPEDFATYYCQQVYSIPWTFGGGTKVEIKR"
3,14.6,"H005-1 (antibody, human IgG4 S228P, kappa, F234A L235A, V domains shown, Parent antibody from WO2015085847; also called 亲本抗体H005-1; H005-1抗体) VH: EVQLVESGGGLVQPGGSLRLSCAASGFTFSSYMMSWVRQAPGKGLEWVATISGGGANTYYPDSVKGRFTISRDNAKNSLYLQMNSLRAEDTAVYYCARQLYYFDYWGQGTTVTVSS VL: DIQMTQSPSSLSASVGDRVTITCLASQTIGTWLTWYQQKPGKAPKLLIYTATSLADGVPSRFSGSGSGTDFTLTISSLQPEDFATYYCQQVYSIPWTFGGGTKVEIKR"
